The experiment addresses GST-His-ZTL (Arabidopsis thaliana, UniProt Q94BT6 1-609, RED-NHS 2nd Generation fluorescent label (in the MST assay only)). In words: MST.

Chain of GST-His-ZTL (Q94BT6 whole entry): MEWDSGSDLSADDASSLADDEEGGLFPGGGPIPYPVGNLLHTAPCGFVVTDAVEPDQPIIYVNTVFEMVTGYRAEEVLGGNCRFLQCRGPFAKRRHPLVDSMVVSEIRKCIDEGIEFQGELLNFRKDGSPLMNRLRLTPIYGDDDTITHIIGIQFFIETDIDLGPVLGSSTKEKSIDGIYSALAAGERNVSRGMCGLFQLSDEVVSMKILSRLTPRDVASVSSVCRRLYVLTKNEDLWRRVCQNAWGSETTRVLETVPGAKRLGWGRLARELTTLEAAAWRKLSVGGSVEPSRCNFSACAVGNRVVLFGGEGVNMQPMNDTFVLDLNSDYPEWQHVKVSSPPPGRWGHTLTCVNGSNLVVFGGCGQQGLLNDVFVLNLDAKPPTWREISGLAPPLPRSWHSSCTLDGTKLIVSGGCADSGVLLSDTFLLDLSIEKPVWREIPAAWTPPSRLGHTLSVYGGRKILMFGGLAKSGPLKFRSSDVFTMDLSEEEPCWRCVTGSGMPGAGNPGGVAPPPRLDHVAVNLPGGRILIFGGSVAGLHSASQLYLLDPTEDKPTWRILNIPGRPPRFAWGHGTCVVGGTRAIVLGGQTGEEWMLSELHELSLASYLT

B1: His-CHE (natural protein)
chain: not shown
What is called Kd is the equilibrium constant for the complex coming apart. A higher Kd goes with weaker binding. Take B1: binding was put at a Kd of 190 nM.

The record behind these values is publication PMC11814294 (2025).
